Assay results taken from publication PMC12527977, “Discovery of a novel tetrapeptide as glucose homeostasis modulator with bifunctionalities of targeting DPP‐IV and microbiota” (iMeta, 2025).
Read-outs that look alike come from different tables or passages of the source. Where a SMILES comes first, the peptide text is derived from it. Where no end group is shown, it is not given here.

Legend:
DPP-IV = DPP-IV (Homo sapiens, UniProt P27487); assay: DPP-IV inhibitory activity of peptides (DPP-IV-Glo Protease Assay Kit); assay type: biochemical; set-up: purchased QiZheng Biotech (Shanghai, China) IBDPP0901; details: for DPP-IV inhibitory activity: DPP-IV-Glo Protease Assay Kit, control = 0, in % (unit assumed); as to DPP-IV inhibitory activity: test concentration or dose not given here
dipeptidyl peptidase IV = dipeptidyl peptidase IV (UniProt P27487)
Sequence of dipeptidyl peptidase IV (P27487 41-765): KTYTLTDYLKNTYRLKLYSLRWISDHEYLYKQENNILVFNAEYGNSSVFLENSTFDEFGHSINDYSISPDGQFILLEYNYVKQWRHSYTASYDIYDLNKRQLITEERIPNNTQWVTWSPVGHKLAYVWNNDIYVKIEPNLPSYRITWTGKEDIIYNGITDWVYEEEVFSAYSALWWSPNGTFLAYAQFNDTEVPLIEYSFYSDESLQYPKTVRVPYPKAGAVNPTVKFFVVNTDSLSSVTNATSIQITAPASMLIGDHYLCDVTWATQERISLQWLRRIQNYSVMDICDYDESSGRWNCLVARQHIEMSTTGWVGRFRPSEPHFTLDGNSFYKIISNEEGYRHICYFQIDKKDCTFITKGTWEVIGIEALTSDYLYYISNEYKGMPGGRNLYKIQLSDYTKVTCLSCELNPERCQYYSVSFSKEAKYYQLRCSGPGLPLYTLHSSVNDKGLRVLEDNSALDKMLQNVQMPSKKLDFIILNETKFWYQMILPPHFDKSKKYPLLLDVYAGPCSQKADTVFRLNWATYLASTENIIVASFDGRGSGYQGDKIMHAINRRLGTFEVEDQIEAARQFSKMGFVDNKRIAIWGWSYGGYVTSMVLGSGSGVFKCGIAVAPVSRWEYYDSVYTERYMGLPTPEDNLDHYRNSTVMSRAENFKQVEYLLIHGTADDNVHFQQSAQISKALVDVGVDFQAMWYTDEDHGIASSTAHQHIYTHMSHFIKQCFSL

Sequence of DPP-IV (P27487 whole entry): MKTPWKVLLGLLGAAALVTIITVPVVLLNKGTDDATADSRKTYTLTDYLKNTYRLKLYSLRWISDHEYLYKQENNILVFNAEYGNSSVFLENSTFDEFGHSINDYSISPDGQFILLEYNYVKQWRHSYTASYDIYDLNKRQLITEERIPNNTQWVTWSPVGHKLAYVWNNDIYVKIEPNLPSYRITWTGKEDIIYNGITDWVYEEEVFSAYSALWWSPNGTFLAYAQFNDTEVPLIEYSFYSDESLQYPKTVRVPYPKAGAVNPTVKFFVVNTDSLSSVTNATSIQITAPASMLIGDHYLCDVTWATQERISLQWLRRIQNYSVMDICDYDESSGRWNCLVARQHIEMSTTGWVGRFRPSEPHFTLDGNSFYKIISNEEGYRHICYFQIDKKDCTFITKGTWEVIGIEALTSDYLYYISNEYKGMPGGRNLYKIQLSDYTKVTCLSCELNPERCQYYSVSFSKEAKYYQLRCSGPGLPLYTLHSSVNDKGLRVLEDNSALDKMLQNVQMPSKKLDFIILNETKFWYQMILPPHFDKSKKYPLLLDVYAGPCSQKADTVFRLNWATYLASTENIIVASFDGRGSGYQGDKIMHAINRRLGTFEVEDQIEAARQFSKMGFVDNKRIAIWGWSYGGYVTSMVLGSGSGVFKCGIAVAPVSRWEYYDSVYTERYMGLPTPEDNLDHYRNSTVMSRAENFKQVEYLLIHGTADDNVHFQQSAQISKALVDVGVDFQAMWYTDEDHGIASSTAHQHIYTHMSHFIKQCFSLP

| Molecule | IC50 of inhibition of DPP-IV activity in vitro (dipeptidyl peptidase IV) [µM] | also measured |
| --- | --- | --- |
| CC(C)C[C@H](NC(=O)[C@H](CCC(N)=O)NC(=O)[C@@H](N)Cc1ccccc1)C(=O)O [FQL] (H-Phe-Gln-Leu-OH) | – | DPP-IV inhibitory activity (DPP-IV; replicate 1, sheet S2F): 25.4694; DPP-IV inhibitory activity (DPP-IV; replicate 2, sheet S2F): 22.9016; DPP-IV inhibitory activity (DPP-IV; replicate 3, sheet S2F): 15.9024; IC50 (DPP-IV; Table S3, read-out: IC50): 970 µM |
| CC(C)C[C@H](N)C(=O)N[C@@H](CC(N)=O)C(=O)N[C@@H](C)C(=O)N1CCC[C@H]1C(=O)O [LNAP] (H-LNAP-OH) | – | DPP-IV inhibitory activity (DPP-IV; replicate 1, sheet S2F): 13.9411; DPP-IV inhibitory activity (DPP-IV; replicate 2, sheet S2F): 16.0533; DPP-IV inhibitory activity (DPP-IV; replicate 3, sheet S2F): 12.0865; IC50 (DPP-IV; Table S3, read-out: IC50): 590 µM |
| LLY (peptide) | 830 | – |
| VFTPQ [VFTPQ] | – | IC50 (DPP-IV): 18500 µM; DPP-IV inhibitory activity (DPP-IV; replicate 1, […]): 17.5527; DPP-IV inhibitory activity (DPP-IV; replicate 2, […]): 15.1374; DPP-IV inhibitory activity (DPP-IV; replicate 3, […]): 15.1911 |
| FDGEL | 45100 | – |
| FPQS | 350 | – |
| LNAP | 590 | – |
| PQNHA | 24600 | – |
| FNVDSE | 84000 | – |
| VADW | 350 | – |
| FNPRG | 40500 | – |

Continued, in another order:

| IC50 of inhibition of DPP-IV activity in vitro (dipeptidyl peptidase IV) [µM] | Molecule | also measured |
| --- | --- | --- |
| 2400 | WLE (peptide) | – |
| 630 | WDSY | – |
| 510 | YNLP | – |
| 320 | YTGD | – |
| 650 | YQLM | – |
| 600 | WIAVK | – |
| 410 | YSYA | – |
| 150 | WNVN | – |
| 7110 | YTPHW | – |
| 18500 | VFTPQ | – |
| 1 | VAMP | – |
